Patent publication US10829561B2, “Antibodies targeting quiescin sulfhydryl oxidase (QSOX1) and uses of same” (Yeda Research and Development Co. Ltd., priority 2015, dated 2020)
Changes are numbered by the printed parent chain. Entries after “also recorded” stand apart in the source; their conditions may differ.

How the values were obtained:
[1] = tested on: 4T1 murine mammary carcinoma; assay: Murine 4T1 breast cancer model, tumor volume; type: in vivo, BALB/c female mice; conditions: 8 mg/kg doxorubicin once a week, intraperitoneal, vs control mice
Protocol: 4T1 mCherry cells were suspended in Hanks' Balanced Salt Solution at a concentration of 2.5×10^6 cells/ml and mixed 1:1 with Cultrex® Basement Membrane Extract. 250,000 cells were injected into the mammary fat pad of 45 BALB/c female mice. Animals were divided into 5 groups containing 9 animals each (as depicted in Table 1B, below). Treatments were administered by intraperitoneal injection, beginning 3 days after cell injection. Tumor dimensions (x,y,z) were measured with a caliper twice a week. Tumor volumes were calculated according to: […]. Animals were weighed once a week. Twenty days post cell injection all animals were sacrificed by CO2 asphyxiation. Tumors and lungs were removed into 4% formaldehyde solution and prepared for histology.
The ability of an antibody inhibiting MmQSOX1 to control tumor growth and metastasis was evaluated in vivo in the 4T1 murine mammary carcinoma breast cancer model previously described [Pulaski and Ostrand-Rosenberg (2001) Mouse 4T1 breast tumor model. Curr. Protoc. Immunol. Chapter 20, Unit 20.2.]. Mice were injected with 4T1 cells together with matrigel, which aided in formation of a localized tumor, and then divided into five groups (as described in Table 1B, above). […] Tumor volumes were measured twice a week. Animals were sacrificed after 20 days, and their tumors and lungs were removed for evaluation.

MmQSOX1 = biological target: T1, MmQSOX1 (Mus musculus, UniProt Q8BND5); assay: Oxygen consumption assay of QSOX1 activity and inhibition (DTT substrate); type: biochemical; conditions: 10:1 molar ratio of antibody to enzyme
T1 construct: Recombinant MmQSOX1 is truncated at the carboxy-terminus and so migrates faster than endogenous secreted MmQSOX1; made in house
T1 sequence (Q8BND5 36-550 limits assumed): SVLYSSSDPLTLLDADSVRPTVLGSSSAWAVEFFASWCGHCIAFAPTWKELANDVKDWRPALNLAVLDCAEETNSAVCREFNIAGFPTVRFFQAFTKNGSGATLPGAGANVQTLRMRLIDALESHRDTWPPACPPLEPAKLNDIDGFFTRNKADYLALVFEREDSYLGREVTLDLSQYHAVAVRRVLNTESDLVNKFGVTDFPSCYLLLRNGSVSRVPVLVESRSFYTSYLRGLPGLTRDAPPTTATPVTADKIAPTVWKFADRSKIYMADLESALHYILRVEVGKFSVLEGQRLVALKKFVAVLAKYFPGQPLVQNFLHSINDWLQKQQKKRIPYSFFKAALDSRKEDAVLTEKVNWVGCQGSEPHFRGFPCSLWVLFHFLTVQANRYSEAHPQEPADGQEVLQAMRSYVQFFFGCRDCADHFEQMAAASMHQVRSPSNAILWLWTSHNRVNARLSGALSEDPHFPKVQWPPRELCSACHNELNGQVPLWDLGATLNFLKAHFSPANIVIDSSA

CpQSOX1 = biological target: T2, CpQSOX1 (Cavia porcellus, UniProt O08841); assay: as above; type: biochemical; conditions: even at 1 μM antibody, 10:1 molar ratio of antibody to enzyme
T2 construct: The CpQSOX1 protein spans residues 34-547 of Cavia porcellus QSOX1; His-tag with thrombin site (inferred from the pET-15b vector, NdeI/BamHI cloning); made in house; host or cells: E. coli
T2 sequence (O08841 34-547): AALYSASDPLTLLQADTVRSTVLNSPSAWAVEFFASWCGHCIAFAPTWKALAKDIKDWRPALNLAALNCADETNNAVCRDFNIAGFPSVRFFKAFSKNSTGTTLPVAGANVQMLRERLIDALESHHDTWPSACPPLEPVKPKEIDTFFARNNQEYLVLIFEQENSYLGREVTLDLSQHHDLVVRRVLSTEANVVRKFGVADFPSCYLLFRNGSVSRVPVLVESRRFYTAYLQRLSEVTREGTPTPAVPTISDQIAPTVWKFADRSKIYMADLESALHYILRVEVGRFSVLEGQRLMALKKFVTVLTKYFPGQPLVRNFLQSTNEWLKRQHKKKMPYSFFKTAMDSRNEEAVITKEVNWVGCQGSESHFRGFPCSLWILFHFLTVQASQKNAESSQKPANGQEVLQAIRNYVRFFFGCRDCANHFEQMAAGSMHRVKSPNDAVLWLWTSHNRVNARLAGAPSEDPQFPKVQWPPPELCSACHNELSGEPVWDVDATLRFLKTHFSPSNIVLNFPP
Protocol: (§1) Reactions were initiated by DTT injection, and oxygen consumption rates were obtained from initial slopes. […] Measurements were performed 3 times, and resulting rates were averaged. For each mutant, the rate in the presence of inhibitory antibody was divided by the rate in the absence of antibody to get percent activity.
(§2) Three mammalian QSOX1 enzymes, from common experimental organisms and having 78-79% sequence identity with HsQSOX1, were chosen: Mus musculus QSOX1 (MmQSOX1), Rattus norvegicus QSOX1 (RnQSOX1), and Cavia porcellus (CpQSOX1). Enzyme activity was assessed in an oxygen consumption assay on the model substrate dithiothreitol (DTT).

RnQSOX1 = biological target: T3, RnQSOX1 (Rattus norvegicus, UniProt Q6IUU3); assay: as above; type: biochemical; conditions: even at 1 μM antibody, 10:1 molar ratio of antibody to enzyme
T3 construct: made in house
T3 sequence (Q6IUU3 33-750): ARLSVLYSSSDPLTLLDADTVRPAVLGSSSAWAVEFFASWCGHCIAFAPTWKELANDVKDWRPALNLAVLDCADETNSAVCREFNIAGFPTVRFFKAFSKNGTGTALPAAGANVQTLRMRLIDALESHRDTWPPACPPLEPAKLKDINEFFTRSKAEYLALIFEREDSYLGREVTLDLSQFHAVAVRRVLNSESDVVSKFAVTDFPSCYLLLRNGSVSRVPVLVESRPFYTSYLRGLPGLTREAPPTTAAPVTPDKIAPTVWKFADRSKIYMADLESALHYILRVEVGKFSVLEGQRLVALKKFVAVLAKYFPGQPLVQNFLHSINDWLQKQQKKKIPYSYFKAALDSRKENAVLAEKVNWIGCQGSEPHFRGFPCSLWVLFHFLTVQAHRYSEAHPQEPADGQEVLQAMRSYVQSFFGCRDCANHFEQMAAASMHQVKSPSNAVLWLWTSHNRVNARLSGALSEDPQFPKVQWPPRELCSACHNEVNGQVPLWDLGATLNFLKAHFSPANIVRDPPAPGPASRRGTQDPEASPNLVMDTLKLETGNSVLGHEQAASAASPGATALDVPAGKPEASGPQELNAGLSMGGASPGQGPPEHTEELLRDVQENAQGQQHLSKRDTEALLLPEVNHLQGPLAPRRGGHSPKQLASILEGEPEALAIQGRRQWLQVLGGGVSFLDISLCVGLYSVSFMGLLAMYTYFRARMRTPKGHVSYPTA
Protocol: as §1, §2

MmQSOX1 A116P mutant = biological target: T4, MmQSOX1 A116P mutant (Mus musculus, UniProt Q8BND5); assay: Oxygen consumption assay, MmQSOX1 mutant mimicking HsQSOX1; type: biochemical; conditions: 250 nM MAb492.1, 200 μM DTT
T4 construct: made in house
T4 sequence (Q8BND5 36-550 A119P limits assumed): T1 sequence (Q8BND5 36-550 limits assumed) with A84P
Protocol: as §1
(§3) The first mutant, A116P, was inhibited by about 60% (FIG. 2D), and the second mutant, TLPG(138-141)VFPV, by about 50%.

[2] = biological target: T5, MmQSOX1 TLPG(138-141)VFPV mutant (Mus musculus, UniProt Q8BND5, G141V/L139F/T138V); assay: as above; type: biochemical; conditions: 250 nM MAb492.1, 200 μM DTT
T5 construct: made in house
T5 sequence (Q8BND5 36-550 T138V/L139F/G141V limits assumed): T1 sequence (Q8BND5 36-550 limits assumed) with T103V, L104F, G106V
Protocol: as §1, §3

[3] = tested on: mouse embryonic fibroblasts (MEFs); assay: Laminin immunostaining in mouse fibroblast cultures; type: cell-based; conditions: MEFs grown for three days in the presence of antibody
Protocol: (§4) The assays were conducted essentially as previously described [Ilani T. et al. (2013), supra]. Instead of human fibroblasts, mouse fibroblasts were grown for three days in the presence of various antibodies. HEK 293T cells were used as adhering cells.
(§5) QSOX1 and laminin are secreted from quiescent fibroblasts into the ECM, where QSOX1 promotes laminin incorporation, and consequently the adherence of epithelial cells to the fibroblast monolayer. Thus, intact laminin networks in the ECM and cell adherence indicate functional QSOX1 activity in the ECM [Ilani T. et al. (2013), supra]. Inventors first verified that MmQSOX1 is secreted from confluent mouse embryonic fibroblasts (MEFs) (FIG. 4A). Next, extracellular laminin secreted by MEFs grown for three days in the presence of MAb492.1, MAb316.1, or MAb492gen was stained. […] A quantitative assay of epithelial cell adhesion to MEF monolayers was performed next. Fluorescently labeled epithelial cells were added to MEFs grown in the absence or presence of the antibodies, and adherent cells were quantified.

[4] = tested on: mouse embryonic fibroblasts (MEFs); assay: Epithelial cell adhesion to mouse fibroblast monolayer; type: cell-based; conditions: 250 nM or 1 μM antibody; HEK 293T adhering cells
Protocol: as §4, §5

HsQSOX1 = biological target: T6, HsQSOX1 (Homo sapiens, UniProt O00391); conditions: Grossman I. et al. (2013); cited from earlier work
T6 construct: made in house
T6 sequence (O00391 33-546 limits assumed): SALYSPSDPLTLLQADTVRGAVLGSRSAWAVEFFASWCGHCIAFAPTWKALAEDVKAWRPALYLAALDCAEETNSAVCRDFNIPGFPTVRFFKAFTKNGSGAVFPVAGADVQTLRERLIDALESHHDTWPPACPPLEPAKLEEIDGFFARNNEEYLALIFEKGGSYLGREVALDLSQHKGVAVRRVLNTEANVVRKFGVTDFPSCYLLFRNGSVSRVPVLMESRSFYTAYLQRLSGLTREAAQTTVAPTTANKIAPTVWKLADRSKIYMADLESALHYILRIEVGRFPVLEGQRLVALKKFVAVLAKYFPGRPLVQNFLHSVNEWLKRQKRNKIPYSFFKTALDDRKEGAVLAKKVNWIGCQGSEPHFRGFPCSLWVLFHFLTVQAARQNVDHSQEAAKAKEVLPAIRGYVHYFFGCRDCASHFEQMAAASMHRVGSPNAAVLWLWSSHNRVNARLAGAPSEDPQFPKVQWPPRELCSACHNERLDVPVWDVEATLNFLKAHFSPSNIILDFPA

COc1cccc2c1C(=O)c1c(O)c3c(c(O)c1C2=O)C[C@@](O)(C(=O)CO)C[C@@H]3O[C@H]1C[C@H](N)[C@H](O)[C@H](C)O1 [doxorubicin, reference compound]
Tumor volume [1]: smaller tumors than control mice

B1: MAb492.1: previously published inhibitory monoclonal antibody blocking the Trx CXXC redox-active site of human QSOX1 (antibody, V domains shown)
VL: DVVMTQTHKFMSTSVGDRVSITCKASQDVSTAVAWYQQKSGQSPKLLIHSASYRYTGVPDRFTGSGSGTDFTFTISSVQAEDLAVYYCQQHYSIPLTFGAGTKLELK
VH: QVQLKQSGPGLVAPSQSLSITCTVSGFSLTGYGVNWVRQSPGKGLEWLGMIWGDGRTDYKSALKSRLSITKDNSKSQVFLKMNSLQTDDTARYFCASDYYGSGSFAYWGQGTLVTVSA
Inhibition of MmQSOX1 at 1 μM antibody (MmQSOX1): no effect; also recorded: No inhibition at 1 μM
Effect on CpQSOX1 activity (CpQSOX1): no effect
Effect on RnQSOX1 activity (RnQSOX1): no effect
Inhibition of MmQSOX1 A116P mutant (MmQSOX1 A116P mutant): about 60%
Inhibition of MmQSOX1 TLPG(138-141)VFPV mutant [2]: about 50%
Laminin network in ECM [3]: did not affect
Epithelial cell adherence to MEF monolayer [4]: did not affect
Concentration inhibiting HsQSOX1 activity in vitro and in cell culture (HsQSOX1): near-stoichiometric concentration
